The target in series [1] is Asp455 (UniProt position 474, KPVMLDLYADW). Conditions: isolated domain, cited from earlier work.
Series [2] deals with Cys461 (UniProt position 480, LYADWCVACKE). Put plainly: NMR. The settings on record: reduced cDsbD (Cys461 and Cys464 as free thiols), isolated from nDsbD; cited from earlier work.
The target in series [3] is oxidized nDsbD (N-terminal periplasmic globular domain of DsbD, wild type) (E. coli) (UniProt P36655). Put plainly: SPR.
The target in series [4] is oxidized D455N/E468Q-cDsbD (E. coli). The series is described as follows: NMR titration.
Series [5] addresses oxidized V462A-cDsbD (E. coli). Put plainly: NMR titration.
The target in series [6] is oxidized cDsbD (C-terminal periplasmic globular domain of DsbD, wild type) (E. coli). Put plainly: NMR titration.
Chain of oxidized cDsbD (C-terminal periplasmic globular domain of DsbD, wild type) (E. coli) (P36655 20-565): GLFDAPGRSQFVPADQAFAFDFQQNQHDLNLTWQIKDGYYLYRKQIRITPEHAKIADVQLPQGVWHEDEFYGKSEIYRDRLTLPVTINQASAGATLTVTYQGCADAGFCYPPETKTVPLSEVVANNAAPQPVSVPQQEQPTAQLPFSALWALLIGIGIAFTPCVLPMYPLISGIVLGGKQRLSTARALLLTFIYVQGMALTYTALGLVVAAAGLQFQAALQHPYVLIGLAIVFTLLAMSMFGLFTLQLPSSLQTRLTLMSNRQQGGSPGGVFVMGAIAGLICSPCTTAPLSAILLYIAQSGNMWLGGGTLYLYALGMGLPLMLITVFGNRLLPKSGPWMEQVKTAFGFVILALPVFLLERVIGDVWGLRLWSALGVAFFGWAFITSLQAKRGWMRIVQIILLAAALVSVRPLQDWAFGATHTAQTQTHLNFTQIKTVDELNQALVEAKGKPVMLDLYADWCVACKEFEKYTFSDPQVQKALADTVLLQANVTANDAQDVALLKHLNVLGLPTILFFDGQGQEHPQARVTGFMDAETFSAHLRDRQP

Read-outs that look alike come from different tables or passages of the source.

Turning to “Thiol:disulfide interchange protein DsbD, C-terminal periplasmic thioredoxin-like domain (cDsbD) (Escherichia coli)”, the pKa in series [1] (oxidized cDsbD (Cys461-Cys464 disulfide)) was 6.6; in series [1] (reduced cDsbD (Cys461 and Cys464 as free thiols)), 5.9; in series [2] it was 10.5.

On to C461A-cDsbD (domain or fragment), for which the Kd in series [3] was found to be 86 µM.

B1: oxidized nDsbD (N-terminal periplasmic globular domain of DsbD, wild type) (domain or fragment)
chain: LFDAPGRSQFVPADQAFAFDFQQNQHDLNLTWQIKDGYYLYRKQIRITPEHAKIADVQLPQGVWHEDEFYGKSEIYRDRLTLPVTINQASAGATLTVTYQGCADAGFCYPPETKTVPLSEVVANNAAPQPV
modifications: Cys103-Cys109 disulfide bond (oxidized state)
In series [4], B1 showed a Kd of 2000 µM. For the same molecule, the fold weaker than with wild-type cDsbDox in series [5] lay in the range of 5 to 10 fold.

B2: C109A-nDsbD (domain or fragment)
chain: LFDAPGRSQFVPADQAFAFDFQQNQHDLNLTWQIKDGYYLYRKQIRITPEHAKIADVQLPQGVWHEDEFYGKSEIYRDRLTLPVTINQASAGATLTVTYQGCADAGFAYPPETKTVPLSEVVANNAAPQPV
In series [6], B2 had a Kd of 2400 to 3500 µM.

What is called pKa is the negative logarithm of the acid dissociation constant. As a reminder, the Kd is the constant that tells how readily two partners part at equilibrium.

The values above are taken from paper PMC3137068.
